Values belong to the binder of their own block, whether it stands above or below them.
Assays:
Assay in all cases: two-hybrid library CCNG1;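 further: natural log of median RNA to DNA barcode read ratio; higher means stronger binding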
4H342-bA = biological target: T1, 4H342-bA
T1 chain: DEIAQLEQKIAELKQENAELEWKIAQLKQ

4H491-bA = biological target: T2, 4H491-bA
T2 chain: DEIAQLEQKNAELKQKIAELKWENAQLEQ

4H2944-bA = biological target: T3, 4H2944-bA
T3 chain: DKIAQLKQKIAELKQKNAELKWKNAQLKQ

4H2937-bA = biological target: T4, 4H2937-bA
T4 chain: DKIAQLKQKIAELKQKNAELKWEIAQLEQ

4H48-bA = biological target: T5, 4H48-bA
T5 chain: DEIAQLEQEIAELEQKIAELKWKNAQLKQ

4H3961-bA = biological target: T6, 4H3961-bA
T6 chain: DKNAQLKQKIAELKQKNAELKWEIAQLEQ

4H2673-bH = biological target: T7, 4H2673-bH
T7 chain: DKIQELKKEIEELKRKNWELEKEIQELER

4H797-bH = biological target: T8, 4H797-bH
T8 chain: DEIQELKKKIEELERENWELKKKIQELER

4H3427-bH = biological target: T9, 4H3427-bH
T9 chain: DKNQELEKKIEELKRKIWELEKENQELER

4H780-bH = biological target: T10, 4H780-bH
T10 chain: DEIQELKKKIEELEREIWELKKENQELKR

4H855-bH = biological target: T11, 4H855-bH
T11 chain: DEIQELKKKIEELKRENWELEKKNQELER

4H3010-bH = biological target: T12, 4H3010-bH
T12 chain: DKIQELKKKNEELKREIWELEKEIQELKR

4H170-bH = biological target: T13, 4H170-bH
T13 chain: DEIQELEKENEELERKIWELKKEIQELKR

4H2586-bH = biological target: T14, 4H2586-bH
T14 chain: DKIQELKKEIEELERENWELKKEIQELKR

4H2702-bH = biological target: T15, 4H2702-bH
T15 chain: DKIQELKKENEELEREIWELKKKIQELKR

4H4073-bH = biological target: T16, 4H4073-bH
T16 chain: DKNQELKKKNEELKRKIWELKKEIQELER

4H968-bH = biological target: T17, 4H968-bH
T17 chain: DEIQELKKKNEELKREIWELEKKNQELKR

4H118-bH = biological target: T18, 4H118-bH
T18 chain: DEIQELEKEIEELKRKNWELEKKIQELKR

4H457-bH = biological target: T19, 4H457-bH
T19 chain: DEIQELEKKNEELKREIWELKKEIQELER

4H918-bH = biological target: T20, 4H918-bH
T20 chain: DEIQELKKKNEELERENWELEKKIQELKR

4H683-bH = biological target: T21, 4H683-bH
T21 chain: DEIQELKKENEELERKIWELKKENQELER

4H1831-bH = biological target: T22, 4H1831-bH
T22 chain: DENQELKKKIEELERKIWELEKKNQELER

4H754-bH = biological target: T23, 4H754-bH
T23 chain: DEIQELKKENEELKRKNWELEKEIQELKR

4H2627-bH = biological target: T24, 4H2627-bH
T24 chain: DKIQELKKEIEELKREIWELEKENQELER

4H346-bH = biological target: T25, 4H346-bH
T25 chain: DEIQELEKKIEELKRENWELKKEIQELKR

4H575-bH = biological target: T26, 4H575-bH
T26 chain: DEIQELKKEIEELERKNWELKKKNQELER

4H883-bN = biological target: T27, 4H883-bN
T27 chain: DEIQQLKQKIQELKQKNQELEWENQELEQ

4H3926-bH = biological target: T28, 4H3926-bH
T28 chain: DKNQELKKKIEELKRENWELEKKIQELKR

4H3112-bH = biological target: T29, 4H3112-bH
T29 chain: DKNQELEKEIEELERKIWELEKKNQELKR

4H953-bH = biological target: T30, 4H953-bH
T30 chain: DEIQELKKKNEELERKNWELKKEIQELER

4H342-bN = biological target: T31, 4H342-bN
T31 chain: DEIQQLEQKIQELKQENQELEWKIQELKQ

4H48-bN = biological target: T32, 4H48-bN
T32 chain: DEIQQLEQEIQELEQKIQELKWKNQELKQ

4H491-bN = biological target: T33, 4H491-bN
T33 chain: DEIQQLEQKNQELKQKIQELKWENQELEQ

4H2937-bN = biological target: T34, 4H2937-bN
T34 chain: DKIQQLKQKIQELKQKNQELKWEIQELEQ

4H2944-bN = biological target: T35, 4H2944-bN
T35 chain: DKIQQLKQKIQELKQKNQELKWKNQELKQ

4H48-bH = biological target: T36, 4H48-bH
T36 chain: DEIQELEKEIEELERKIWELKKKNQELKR

4H2937-bH = biological target: T37, 4H2937-bH
T37 chain: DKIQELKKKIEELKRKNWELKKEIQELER

4H491-bH = biological target: T38, 4H491-bH
T38 chain: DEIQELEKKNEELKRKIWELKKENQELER

4H2944-bH = biological target: T39, 4H2944-bH
T39 chain: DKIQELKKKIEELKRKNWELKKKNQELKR

4H342-bH = biological target: T40, 4H342-bH
T40 chain: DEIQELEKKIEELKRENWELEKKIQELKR

4H2134-bA = biological target: T41, 4H2134-bA
T41 chain: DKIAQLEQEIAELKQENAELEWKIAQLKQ

4H2223-bA = biological target: T42, 4H2223-bA
T42 chain: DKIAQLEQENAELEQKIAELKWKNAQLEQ

4H40-bA = biological target: T43, 4H40-bA
T43 chain: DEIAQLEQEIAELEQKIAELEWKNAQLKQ

4H2915-bA = biological target: T44, 4H2915-bA
T44 chain: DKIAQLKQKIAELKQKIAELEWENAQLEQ

4H2692-bA = biological target: T45, 4H2692-bA
T45 chain: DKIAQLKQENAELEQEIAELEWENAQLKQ

4H2438-bA = biological target: T46, 4H2438-bA
T46 chain: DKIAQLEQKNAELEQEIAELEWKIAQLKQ

4H492-bA = biological target: T47, 4H492-bA
T47 chain: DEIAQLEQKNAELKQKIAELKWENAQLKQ

4H2143-bA = biological target: T48, 4H2143-bA
T48 chain: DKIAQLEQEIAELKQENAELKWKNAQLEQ

4H348-bA = biological target: T49, 4H348-bA
T49 chain: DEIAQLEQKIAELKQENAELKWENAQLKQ

4H2503-bA = biological target: T50, 4H2503-bA
T50 chain: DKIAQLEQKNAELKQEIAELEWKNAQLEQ

4H3057-bA = biological target: T51, 4H3057-bA
T51 chain: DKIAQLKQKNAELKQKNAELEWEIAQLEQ

4H2839-bA = biological target: T52, 4H2839-bA
T52 chain: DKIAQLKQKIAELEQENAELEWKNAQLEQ

4H477-bA = biological target: T53, 4H477-bA
T53 chain: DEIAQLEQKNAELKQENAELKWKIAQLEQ

4H2473-bA = biological target: T54, 4H2473-bA
T54 chain: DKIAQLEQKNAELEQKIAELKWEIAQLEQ

4H741-bA = biological target: T55, 4H741-bA
T55 chain: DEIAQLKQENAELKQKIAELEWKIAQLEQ

4H319-bA = biological target: T56, 4H319-bA
T56 chain: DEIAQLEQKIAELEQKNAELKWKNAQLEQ

4H2717-bA = biological target: T57, 4H2717-bA
T57 chain: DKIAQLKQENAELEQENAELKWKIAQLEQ

4H3277-bA = biological target: T58, 4H3277-bA
T58 chain: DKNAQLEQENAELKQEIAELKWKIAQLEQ

O14-bN = biological target: T59, O14-bN
T59 chain: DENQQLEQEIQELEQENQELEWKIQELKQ

4H2588-bA = biological target: T60, 4H2588-bA
T60 chain: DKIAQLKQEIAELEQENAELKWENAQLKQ

Binder: DEIQELEKEIEELKRKNWELEKKIQELKR [4H118-bH]
interaction score (4H3961-bA): 1.46
interaction score (4H2673-bH): 1.9
interaction score (4H797-bH): -0.304
interaction score (4H3427-bH): 1.04
interaction score (4H780-bH): 0.443
interaction score (4H855-bH): 0.119
interaction score (4H3010-bH): 1.94
interaction score (4H170-bH): 1.57
interaction score (4H2586-bH): 0.817
interaction score (4H2702-bH): 0.513
interaction score (4H4073-bH): 0.239
interaction score (4H968-bH): 1.49
interaction score (4H118-bH): 1.75
interaction score (4H457-bH): 0.505
interaction score (4H918-bH): 0.604
interaction score (4H683-bH): -0.584
interaction score (4H1831-bH): -0.127
interaction score (4H754-bH): 0.181
interaction score (4H2627-bH): 1.09
interaction score (4H346-bH): 0.654
interaction score (4H575-bH): -0.101
interaction score (4H883-bN): 1.72
interaction score (4H3926-bH): 1.57
interaction score (4H3112-bH): 0.102
interaction score (4H953-bH): 0.224

Binder: DKIQQLKQKIQELKQKNQELKWEIQELEQ [4H2937-bN]
interaction score (4H342-bN): 1.46
interaction score (4H48-bN): -0.313
interaction score (4H491-bN): -1.11
interaction score (4H2937-bN): -0.616
interaction score (4H2944-bN): -1.12

Results, then the binder that gave them:

interaction score (4H342-bA): 1.61
interaction score (4H491-bA): -0.0219
interaction score (4H2944-bA): -0.548
interaction score (4H2937-bA): -0.419
interaction score (4H48-bA): 0.573
Binder: DKIAQLKQKIAELKQKNAELKWEIAQLEQ [4H2937-bA]

interaction score (4H48-bH): 0.185
interaction score (4H2937-bH): 0.307
interaction score (4H491-bH): 0.828
interaction score (4H2944-bH): -0.833
interaction score (4H342-bH): 1.21
Binder: DKIQELKKKIEELKRKNWELKKEIQELER [4H2937-bH]

interaction score (4H2134-bA): 1.43
interaction score (4H2223-bA): -0.522
interaction score (4H40-bA): 0.811
interaction score (4H2915-bA): 1.66
interaction score (4H2692-bA): -0.139
interaction score (4H2438-bA): 0.819
interaction score (4H492-bA): 0.114
interaction score (4H2143-bA): 1.32
interaction score (4H348-bA): -1.14
interaction score (4H2503-bA): 0.834
interaction score (4H3057-bA): 2.33
interaction score (4H2839-bA): 0.969
interaction score (4H477-bA): 0.935
interaction score (4H2473-bA): 0.432
interaction score (4H741-bA): -1.46
interaction score (4H319-bA): -0.399
interaction score (4H2717-bA): -0.277
interaction score (4H3277-bA): 0.0479
interaction score (O14-bN): -1.45
interaction score (4H2588-bA): 0.531
Binder: DKIAQLEQEIAELKQENAELEWKIAQLKQ [4H2134-bA]

Source: publication PMC10397247
